Results reported in US20250136688A1 (Janssen / Centocor, published 2025).

Assays:
[1] = target: T1, Human CD3 epsilon (human, UniProt P07766 23-207); assay: flow cytometry on T cells of healthy human donor 888668965
T1 construct: Stood on human T cells (pan-T cells, isolated donor T cells) as part of the TCR/CD3 complex; the other chains of the complex are not written here; also called CD3ε; CD3R

[2] = target: T2, ectonucleotide pyrophosphatase/phosphodiesterase family member 3 (ENPP3) (human, UniProt O14638 1-875); assay: cell-based or functional assay
T2 sequence (looked up): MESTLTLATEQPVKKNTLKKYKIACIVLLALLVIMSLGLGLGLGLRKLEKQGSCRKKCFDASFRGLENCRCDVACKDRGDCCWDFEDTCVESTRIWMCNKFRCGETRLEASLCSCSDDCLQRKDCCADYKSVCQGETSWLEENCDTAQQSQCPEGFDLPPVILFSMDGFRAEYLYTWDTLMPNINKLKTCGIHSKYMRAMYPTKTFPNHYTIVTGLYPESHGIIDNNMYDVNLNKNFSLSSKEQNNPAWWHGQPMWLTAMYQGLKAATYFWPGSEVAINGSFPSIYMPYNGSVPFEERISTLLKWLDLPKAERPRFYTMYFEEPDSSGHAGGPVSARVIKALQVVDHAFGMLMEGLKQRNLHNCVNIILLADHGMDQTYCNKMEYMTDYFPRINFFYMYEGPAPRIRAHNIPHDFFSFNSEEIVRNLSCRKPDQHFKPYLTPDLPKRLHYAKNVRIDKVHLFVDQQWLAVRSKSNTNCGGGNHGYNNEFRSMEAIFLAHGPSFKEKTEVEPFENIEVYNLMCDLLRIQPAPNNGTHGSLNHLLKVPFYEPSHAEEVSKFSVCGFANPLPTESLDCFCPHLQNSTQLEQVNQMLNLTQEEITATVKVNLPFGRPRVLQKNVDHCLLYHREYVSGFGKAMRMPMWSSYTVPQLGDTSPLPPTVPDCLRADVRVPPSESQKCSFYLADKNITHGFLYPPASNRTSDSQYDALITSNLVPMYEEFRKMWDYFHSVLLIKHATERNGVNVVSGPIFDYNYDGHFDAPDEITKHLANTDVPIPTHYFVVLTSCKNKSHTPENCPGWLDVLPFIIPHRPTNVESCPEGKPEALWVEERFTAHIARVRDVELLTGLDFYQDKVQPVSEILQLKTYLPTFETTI

[3] = target: T2, ectonucleotide …; assay: flow cytometry on VMRCRCW cells
[4] = target: T1, Human CD3 epsilon; assay: flow cytometry on T cells of healthy human donor 110042593
[5] = target: T3, cyno ENPP3 (cynomolgus monkey, UniProt A0A2K5TKP4 1-874); assay: cell-based or functional assay
T3 sequence: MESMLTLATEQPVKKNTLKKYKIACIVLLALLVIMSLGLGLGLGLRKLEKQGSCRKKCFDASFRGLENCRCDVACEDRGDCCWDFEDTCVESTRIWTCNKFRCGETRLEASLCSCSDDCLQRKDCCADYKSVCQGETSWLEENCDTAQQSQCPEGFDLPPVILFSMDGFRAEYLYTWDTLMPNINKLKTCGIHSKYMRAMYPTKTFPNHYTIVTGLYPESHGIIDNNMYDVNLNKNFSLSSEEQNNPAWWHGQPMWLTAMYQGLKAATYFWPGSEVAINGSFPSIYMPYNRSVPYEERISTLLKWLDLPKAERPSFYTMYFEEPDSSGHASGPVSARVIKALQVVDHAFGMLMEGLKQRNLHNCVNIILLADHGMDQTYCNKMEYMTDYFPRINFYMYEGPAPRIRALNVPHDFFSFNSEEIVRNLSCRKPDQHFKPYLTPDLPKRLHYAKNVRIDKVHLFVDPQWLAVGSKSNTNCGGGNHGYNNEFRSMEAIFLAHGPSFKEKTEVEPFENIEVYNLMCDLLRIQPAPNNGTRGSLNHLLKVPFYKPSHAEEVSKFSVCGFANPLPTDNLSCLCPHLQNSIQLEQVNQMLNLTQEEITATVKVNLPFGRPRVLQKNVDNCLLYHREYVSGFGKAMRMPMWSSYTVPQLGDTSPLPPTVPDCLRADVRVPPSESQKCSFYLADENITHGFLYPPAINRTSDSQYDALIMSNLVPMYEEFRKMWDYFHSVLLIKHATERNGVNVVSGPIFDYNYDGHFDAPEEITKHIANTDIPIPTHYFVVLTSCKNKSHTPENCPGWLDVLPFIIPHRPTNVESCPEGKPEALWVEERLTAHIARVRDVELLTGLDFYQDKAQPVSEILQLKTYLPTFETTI

T1 sequence (P07766 23-207 limits assumed): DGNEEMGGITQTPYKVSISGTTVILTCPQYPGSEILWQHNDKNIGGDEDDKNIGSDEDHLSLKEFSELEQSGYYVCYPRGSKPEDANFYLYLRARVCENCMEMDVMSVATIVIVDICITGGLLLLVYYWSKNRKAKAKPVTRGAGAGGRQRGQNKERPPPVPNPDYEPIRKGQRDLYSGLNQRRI

B1: NPP3B815 (NPP3B56×CD3B2030-N106A-spFv) (bispecific antibody, human IgG1, kappa, L234A L235A)
chain: EIVLTQSPATLSASPGERVTLSCSASSSVSYMNWYQQKPGCAPRRWIYDSSKLASGVPARFSGSGSGRDYTLTISSLEPEDFAVYYCQQWSRNPPTFGGGTKVEIKGGGSGGSGGCPPCGGSGGQVQLVQSGAEVKKPGSSVKVSCKASGYTFTRSTMHWVKQAPGQGLEWIGYINPSSAYTNYNQKFQGRVTLTADKSTSTAYMELSSLRSEDTAVYYCASPQVHYDYAGFPYWGCGTLVTVSSEPKSSDKTHTCPPCPAPEAAGGPSVFLFPPKPKDTLMISRTPEVTCVVVSVSHEDPEVKFNWYVDGVEVHNAKTKPREEQYNSTYRVVSVLTVLHQDWLNGKEYKCKVSNKALPAPIEKTISKAKGQPREPQVYTLPPSREEMTKNQVSLWCLVKGFYPSDIAVEWESNGQPENNYKTTPPVLDSDGSFFLYSKLTVDKSRWQQGNVFSCSVMHEALHNHYTQKSLSLSPGK
heavy: EVQLVESGGGRVKPGGSLRLSCAASGFTFSDYSMNWVRQAPGKGLEWVSSISSISSYVKYADSVKGRFTMSRDNAKNSLFLQMNSLRDEDMAVYYCARGHYFDYWGQGTLVTVSSASTKGPSVFPLAPSSKSTSGGTAALGCLVKDYFPEPVTVSWNSGALTSGVHTFPAVLQSSGLYSLSSVVTVPSSSLGTQTYICNVNHKPSNTKVDKKVEPKSCDKTHTCPPCPAPEAAGGPSVFLFPPKPKDTLMISRTPEVTCVVVSVSHEDPEVKFNWYVDGVEVHNAKTKPREEQYNSTYRVVSVLTVLHQDWLNGKEYKCKVSNKALPAPIEKTISKAKGQPREPQVYTLPPSREEMTKNQVSLSCAVKGFYPSDIAVEWESNGQPENNYKTTPPVLDSDGSFFLVSKLTVDKSRWQQGNVFSCSVMHEALHNRFTQKSLSLSPGK
light: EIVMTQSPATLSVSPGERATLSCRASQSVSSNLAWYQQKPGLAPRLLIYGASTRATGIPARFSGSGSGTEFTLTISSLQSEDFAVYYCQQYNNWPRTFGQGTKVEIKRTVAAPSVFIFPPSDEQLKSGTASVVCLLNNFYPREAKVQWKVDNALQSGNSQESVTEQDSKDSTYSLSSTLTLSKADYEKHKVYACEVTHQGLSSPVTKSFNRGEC
notes: Heavy Chain 1 = anti-CD3 spFv-Fc (knob); Heavy Chain 2 and Light Chain = anti-ENPP3 Fab arm NPP3B56 (hole); IgG1 with L234A, L235A, D265S; also called ENPP3×CD3
- EC50 [1]: 197 nM
- killing EC50 with PBMCs, A704, donor 110040278, E:T 3:1 [2]: 0.052 nM
- killing EC50 with PBMCs, A704, donor 110040278, E:T 5:1 [2]: 0.028 nM
- killing EC50 with PBMCs, A704, donor 110042496, E:T 3:1 [2]: 0.097 nM
- killing EC50 with PBMCs, A704, donor 110042496, E:T 5:1 [2]: 0.061 nM
- killing EC50 with PBMCs, A704, donor 110042593, E:T 1:1 [2]: 0.124 nM
- killing EC50 with PBMCs, A704, donor 110042593, E:T 3:1 [2]: 0.039 nM
- killing EC50 with PBMCs, A704, donor 110042593, E:T 5:1 [2]: 0.015 nM
- killing EC50 with PBMCs, A704, donor 110044049, E:T 1:1 [2]: 0.131 nM
- killing EC50 with PBMCs, A704, donor 110044049, E:T 3:1 [2]: 0.052 nM
- killing EC50 with PBMCs, A704, donor 110044049, E:T 5:1 [2]: 0.016 nM
- killing EC50 with PBMCs, A704, donor 110048457, E:T 3:1 [2]: 0.046 nM
- killing EC50 with PBMCs, A704, donor 110048457, E:T 5:1 [2]: 0.013 nM
- killing EC50 with PBMCs, A704, donor 888668965, E:T 1:1 [2]: 0.107 nM
- killing EC50 with PBMCs, A704, donor 888668965, E:T 3:1 [2]: 0.036 nM
- killing EC50 with PBMCs, A704, donor 888668965, E:T 5:1 [2]: 0.015 nM
- killing EC50 with PBMCs, VMRCRCW, donor 110040278, E:T 5:1 [2]: 0.033 nM
- killing EC50 with PBMCs, VMRCRCW, donor 110042496, E:T 5:1 [2]: 0.065 nM
- killing EC50 with PBMCs, VMRCRCW, donor 110042593, E:T 5:1 [2]: 0.033 nM
- killing EC50 with PBMCs, VMRCRCW, donor 110044049, E:T 5:1 [2]: 0.051 nM
- killing EC50 with PBMCs, VMRCRCW, donor 110048457, E:T 5:1 [2]: 0.063 nM
- killing EC50 with PBMCs, VMRCRCW, donor 888668965, E:T 5:1 [2]: 0.062 nM
- EC50 [3]: 0.5 nM
- EC50 [4]: 146 nM
- Cytotox. EC50, human T cells, HepG2-KO cyno ENPP3-OE cells, E:T 3:1 [5]: 0.079 nM
- T-cell activation EC50, human T cells, HepG2-KO cyno ENPP3-OE cells, E:T 3:1 [5]: 0.023 nM
